How the values were obtained:
[1] = molecular target: purified bovine cation-independent mannose 6-phosphate receptor (CI-MPR) (bovine) (UniProt P08169); test: plate assay: conditioned medium on immobilized bovine CI-MPR, bound enzyme by 4-MU activity, linear range points
[2] = molecular target: purified bovine cation-independent mannose 6-phosphate receptor (CI-MPR) (bovine) (UniProt P08169); test: plate assay: conditioned medium on immobilized bovine CI-MPR, bound enzyme by 4-MU activity

Sequence of UniProt P08169 (P08169 45-2313 limits assumed): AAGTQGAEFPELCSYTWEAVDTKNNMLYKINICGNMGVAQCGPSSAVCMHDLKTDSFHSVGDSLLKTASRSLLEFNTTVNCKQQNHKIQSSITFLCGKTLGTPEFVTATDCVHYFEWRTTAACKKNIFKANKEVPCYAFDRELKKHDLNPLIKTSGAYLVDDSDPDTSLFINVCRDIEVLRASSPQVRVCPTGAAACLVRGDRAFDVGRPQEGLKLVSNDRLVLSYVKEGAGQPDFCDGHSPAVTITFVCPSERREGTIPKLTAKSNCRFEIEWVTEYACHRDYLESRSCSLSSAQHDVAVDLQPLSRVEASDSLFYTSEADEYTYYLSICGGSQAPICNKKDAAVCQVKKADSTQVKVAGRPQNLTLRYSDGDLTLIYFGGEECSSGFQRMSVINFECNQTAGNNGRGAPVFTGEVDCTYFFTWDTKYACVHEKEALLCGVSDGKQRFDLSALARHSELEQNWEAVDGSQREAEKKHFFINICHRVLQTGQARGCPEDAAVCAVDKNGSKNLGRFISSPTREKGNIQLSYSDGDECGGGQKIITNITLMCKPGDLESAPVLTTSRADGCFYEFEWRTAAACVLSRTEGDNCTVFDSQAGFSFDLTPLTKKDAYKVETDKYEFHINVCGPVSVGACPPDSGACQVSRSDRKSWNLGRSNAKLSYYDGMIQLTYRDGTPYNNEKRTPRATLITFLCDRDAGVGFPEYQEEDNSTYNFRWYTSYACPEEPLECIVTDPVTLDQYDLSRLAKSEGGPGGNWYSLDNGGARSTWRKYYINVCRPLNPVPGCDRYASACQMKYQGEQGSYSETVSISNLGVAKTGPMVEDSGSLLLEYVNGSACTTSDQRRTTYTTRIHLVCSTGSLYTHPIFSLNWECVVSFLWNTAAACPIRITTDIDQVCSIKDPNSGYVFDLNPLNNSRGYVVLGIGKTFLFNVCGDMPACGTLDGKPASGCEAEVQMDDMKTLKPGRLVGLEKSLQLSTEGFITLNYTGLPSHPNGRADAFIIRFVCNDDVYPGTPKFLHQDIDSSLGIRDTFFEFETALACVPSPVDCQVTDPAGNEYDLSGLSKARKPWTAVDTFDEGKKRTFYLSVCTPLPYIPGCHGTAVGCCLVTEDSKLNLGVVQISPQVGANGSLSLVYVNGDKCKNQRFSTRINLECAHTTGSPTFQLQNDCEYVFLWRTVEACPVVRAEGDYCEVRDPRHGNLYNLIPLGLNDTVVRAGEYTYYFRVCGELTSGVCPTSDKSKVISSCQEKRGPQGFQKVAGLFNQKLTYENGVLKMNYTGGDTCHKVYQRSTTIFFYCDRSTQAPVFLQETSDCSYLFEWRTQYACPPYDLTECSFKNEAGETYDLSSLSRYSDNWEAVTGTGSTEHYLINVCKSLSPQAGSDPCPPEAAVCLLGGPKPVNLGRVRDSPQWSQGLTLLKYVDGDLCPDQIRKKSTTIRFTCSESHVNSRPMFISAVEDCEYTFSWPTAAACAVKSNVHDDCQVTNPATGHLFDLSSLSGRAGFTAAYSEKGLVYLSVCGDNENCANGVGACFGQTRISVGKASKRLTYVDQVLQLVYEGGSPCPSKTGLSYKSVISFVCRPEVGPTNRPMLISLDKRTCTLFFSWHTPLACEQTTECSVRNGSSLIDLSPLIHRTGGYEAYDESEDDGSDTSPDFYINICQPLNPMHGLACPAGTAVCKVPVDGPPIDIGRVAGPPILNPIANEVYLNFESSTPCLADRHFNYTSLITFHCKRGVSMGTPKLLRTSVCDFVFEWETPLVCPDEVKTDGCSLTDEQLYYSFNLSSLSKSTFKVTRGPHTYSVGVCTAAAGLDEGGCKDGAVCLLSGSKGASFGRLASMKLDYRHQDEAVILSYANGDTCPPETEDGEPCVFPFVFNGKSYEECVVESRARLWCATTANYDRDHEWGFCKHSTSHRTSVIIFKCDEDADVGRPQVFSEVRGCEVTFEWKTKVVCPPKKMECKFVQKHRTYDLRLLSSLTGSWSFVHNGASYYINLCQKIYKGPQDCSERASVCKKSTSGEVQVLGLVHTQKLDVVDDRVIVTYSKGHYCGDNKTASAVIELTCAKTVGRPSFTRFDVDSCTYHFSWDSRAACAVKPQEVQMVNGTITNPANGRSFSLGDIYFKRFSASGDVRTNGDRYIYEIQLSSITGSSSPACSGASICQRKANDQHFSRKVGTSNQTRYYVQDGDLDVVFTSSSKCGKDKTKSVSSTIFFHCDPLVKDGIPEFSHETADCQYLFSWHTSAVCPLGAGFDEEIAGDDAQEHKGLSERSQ

| Substance | percentage of receptor binding [1] | overall binding percentage [2] | fold of binding percentage against GLA sample [2] | fold of percentage bound against GBA produced by endogenous phosphotransferase [2] |
| --- | --- | --- | --- | --- |
| human acid beta-glucosidase (GBA) produced by co-transfection of GBA plasmid and CMV-S1S3 plasmid in Expi293 cells (from UniProt P04062 40-536) (enzyme) | 43% | – | – | – |
| human alpha-galactosidase (GLA) produced from GLA single plasmid in Expi293 cells (from UniProt P06280 32-429) (enzyme) | – | 33.1% | – | – |
| human alpha-galactosidase (GLA) produced from bicistronic plasmid pLL51 in Expi293 cells (from UniProt P06280 32-429) (enzyme) | – | 62.1% | 2 fold | – |
| human acid beta-glucosidase (GBA) produced from bicistronic plasmid pLL11 (pCMV-hGBA-IRES-S1S3) in Expi293 cells (from UniProt P04062 40-536) (enzyme) | 44% | – | – | 10 fold |
| human acid beta-glucosidase (GBA) produced from GBA single expression plasmid in Expi293 cells (endogenous phosphotransferase) (from UniProt P04062 40-536) (enzyme) | 4.5% | – | – | – |
